Target: PA28γ (endogenous, U2OS cells) (human (endogenous in U2OS)) (UniProt P61289)
Experiment: proximity ligation

Sequence of UniProt P61289 (P61289 whole entry): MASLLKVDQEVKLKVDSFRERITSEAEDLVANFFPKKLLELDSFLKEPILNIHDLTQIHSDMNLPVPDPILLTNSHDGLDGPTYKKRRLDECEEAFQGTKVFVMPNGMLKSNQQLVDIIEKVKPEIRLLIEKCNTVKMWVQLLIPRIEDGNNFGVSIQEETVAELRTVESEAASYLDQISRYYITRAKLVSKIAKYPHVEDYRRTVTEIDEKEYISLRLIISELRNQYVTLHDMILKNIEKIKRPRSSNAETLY

PLA dots per nucleus (PLA dots per nucleus): < 60
Substance: 20S proteasome (endogenous, U2OS cells), detected by its α4 subunit (from UniProt O14818 1-248) (complex)
